Data: US20090028788A1 (WASHINGTON UNIVERSITY IN ST LOUIS, published 2009)
Bridges are numbered along the chain shown (N, C = ends). Primed or numbered codes have the meaning given here. Where no end group is shown, it is not given here. [ ]: non-standard residue; d: D form. The star is where a group is joined. Cypate = CC1(C)C(/C=C/C=C/C=C/C=C2/N(CCC(=O)*)c3ccc4ccccc4c3C2(C)C)=[N+](CCC(=O)O)c2ccc3ccccc3c21; DOTA = O=C(O)CN1CCN(CC(=O)O)CCN(CC(=O)*)CCN(CC(=O)O)CC1; Cypate′ = NIR carbocyanine dye; βAla = NCCC(=O)O

Tests used:
[1] = biological target: T1, purified human αvβ3 integrin protein (human, UniProt P06756 31-1048; P05106 27-788); assay: competition with 125I-echistatin on purified human αvβ3 integrin, filter plate
T1 construct: Bought heterodimer; also called ABI; purified αvβ3 integrin

[2] = biological target: T1, purified human αvβ3 integrin protein; assay: as above; remark: listed apart in the source
[3] = biological target: T1, purified human αvβ3 integrin protein; assay: competition with 125I-echistatin on purified αvβ3 integrin, filtration plate (Example 3)
[4] = biological target: T1, purified human αvβ3 integrin protein; assay: competition with 125I-echistatin on purified human αvβ3 integrin, filter plate; remark: listed apart in the source

IC50 [2] [µM] | IC50 [4] [µM] | Molecule | further results
 |  | Cypate(Octreotate)1-(Arg-Gly-Asp-NH2)1 (peptide) | IC50 [1]: 4.67 µM
325 |  | {Cypate′}-VRGD[dF]CY[dW]KTCT-OH (disulfide 6-11) [Cypate-Val-Arg-Gly-Asp-DPhe-Cyclo(Cys-Tyr-DTrp-Lys-Thr-Cys)-Thr-OH] | 
 |  | RGDXVK (HELM PEPTIDE1{R.G.D.[dF].V.K}$PEPTIDE1,PEPTIDE1,1:R1-6:R2$$$V2.0; SMILES CC(C)[C@@H]1NC(=O)[C@@H](Cc2ccccc2)NC(=O)[C@H](CC(=O)O)NC(=O)CNC(=O)[C@H](CCCNC(=N)N)NC(=O)[C@H](CCCCN)NC1=O) [cyclo[RGDfVK]] | IC50 [3]: 1.93 µM
0.328 |  | GRGDSPK (HELM PEPTIDE1{[CC1(C)C(/C=C/C=C/C=C/C=C2/N(CCC(=O)[*:2])c3ccc4ccccc4c3C2(C)C)=[N+](CCC(=O)O)c2ccc3ccccc3c21].G.R.G.D.S.P.K}$$$$V2.0; SMILES CC1(C)C(/C=C/C=C/C=C/C=C2/N(CCC(=O)NCC(=O)N[C@@H](CCCNC(=N)N)C(=O)NCC(=O)N[C@@H](CC(=O)O)C(=O)N[C@@H](CO)C(=O)N3CCC[C@H]3C(=O)N[C@@H](CCCCN)C(=O)O)c3ccc4ccccc4c3C2(C)C)=[N+](CCC(=O)O)c2ccc3ccccc3c21, also called Cypate-GRGDSPK; Cypate-GRGDSPK-OH) [Cypate-Gly-Arg-Gly-Asp-Ser-Pro-Lys-OH] | IC50 [3]: 10.7 µM
 | 4.6 | CRGDC (HELM PEPTIDE1{[CC1(C)C(/C=C/C=C/C=C/C=C2/N(CCC(=O)[*:2])c3ccc4ccccc4c3C2(C)C)=[N+](CCC(=O)O)c2ccc3ccccc3c21].C.R.G.D.C.[am]}$PEPTIDE1,PEPTIDE1,2:R3-6:R3$$$V2.0; SMILES CC1(C)C(/C=C/C=C/C=C/C=C2/N(CCC(=O)N[C@H]3CSSC[C@@H](C(N)=O)NC(=O)[C@H](CC(=O)O)NC(=O)CNC(=O)[C@H](CCCNC(=N)N)NC3=O)c3ccc4ccccc4c3C2(C)C)=[N+](CCC(=O)O)c2ccc3ccccc3c21, also called Cypate-cyclo(CRGDC)-NH2) [Cypate-Cyclo(Cys-Arg-Gly-Asp-Cys)-NH2] | 
7.02 |  | GRDSPK (HELM PEPTIDE1{[CC1(C)C(/C=C/C=C/C=C/C=C2/N(CCC(=O)[*:2])c3ccc4ccccc4c3C2(C)C)=[N+](CCC(=O)O)c2ccc3ccccc3c21].G.R.D.S.P.K}$$$$V2.0; SMILES CC1(C)C(/C=C/C=C/C=C/C=C2/N(CCC(=O)NCC(=O)N[C@@H](CCCNC(=N)N)C(=O)N[C@@H](CC(=O)O)C(=O)N[C@@H](CO)C(=O)N3CCC[C@H]3C(=O)N[C@@H](CCCCN)C(=O)O)c3ccc4ccccc4c3C2(C)C)=[N+](CCC(=O)O)c2ccc3ccccc3c21, also called Cypate-GRDSPK; Cypate-GRDSPK-OH) [Cypate-Gly-Arg-Asp-Ser-Pro-Lys-OH] | IC50 [3]: > 100 µM
 | 1.09 | CRGDGRC (HELM PEPTIDE1{[CC1(C)C(/C=C/C=C/C=C/C=C2/N(CCC(=O)[*:2])c3ccc4ccccc4c3C2(C)C)=[N+](CCC(=O)O)c2ccc3ccccc3c21].C.R.G.D.G.R.C.[am]}$PEPTIDE1,PEPTIDE1,2:R3-8:R3$$$V2.0; SMILES CC1(C)C(/C=C/C=C/C=C/C=C2/N(CCC(=O)N[C@H]3CSSC[C@@H](C(N)=O)NC(=O)[C@H](CCCNC(=N)N)NC(=O)CNC(=O)[C@H](CC(=O)O)NC(=O)CNC(=O)[C@H](CCCNC(=N)N)NC3=O)c3ccc4ccccc4c3C2(C)C)=[N+](CCC(=O)O)c2ccc3ccccc3c21) [Cypate-cyclo(CRGDGRC)-NH2] | 
79.5 | 79.5 | cyclo(K(Cypate)RGD[dF]V) (SMILES CC(C)[C@@H]1NC(=O)[C@@H](Cc2ccccc2)NC(=O)[C@H](CC(=O)O)NC(=O)CNC(=O)[C@H](CCCNC(=N)N)NC(=O)[C@H](CCCCNC(=O)CCN2/C(=C/C=C/C=C/C=C/C3=[N+](CCC(=O)O)c4ccc5ccccc5c4C3(C)C)C(C)(C)c3c2ccc2ccccc32)NC1=O, also called Cyclo(K^(Cypate)RGDfV); cyclo-[K^(Cypate)RGDfV]) [Cyclo(Lys(Cypate)-Arg-Gly-Asp-DPhe-Val)] | IC50 [3]: 79.1 µM
266 |  | {Cypate(2)}-GRDSPK-OH [Cypate(2)-Gly-Arg-Asp-Ser-Pro-Lys-OH] | 
1.94 |  | Cypate-RGDS-NH2 (also: cypate also carries one D-glucosamine) [Cypate(Arg-Gly-Asp-Ser-NH2)1-(D-Glucosamine)] | 
 | 1.14 | CRGDSC (HELM PEPTIDE1{[CC1(C)C(/C=C/C=C/C=C/C=C2/N(CCC(=O)[*:2])c3ccc4ccccc4c3C2(C)C)=[N+](CCC(=O)O)c2ccc3ccccc3c21].C.R.G.D.S.C.[am]}$PEPTIDE1,PEPTIDE1,2:R3-7:R3$$$V2.0; SMILES CC1(C)C(/C=C/C=C/C=C/C=C2/N(CCC(=O)N[C@H]3CSSC[C@@H](C(N)=O)NC(=O)[C@H](CO)NC(=O)[C@H](CC(=O)O)NC(=O)CNC(=O)[C@H](CCCNC(=N)N)NC3=O)c3ccc4ccccc4c3C2(C)C)=[N+](CCC(=O)O)c2ccc3ccccc3c21, also called Cypate-[Cyclo-(Cys-Arg-Gly-Asp-Ser-Cys)]1) [Cypate-cyclo(CRGDSC)-NH2] | 
 | 9.64 | CRGDLC (HELM PEPTIDE1{[CC1(C)C(/C=C/C=C/C=C/C=C2/N(CCC(=O)[*:2])c3ccc4ccccc4c3C2(C)C)=[N+](CCC(=O)O)c2ccc3ccccc3c21].C.R.G.D.L.C.[am]}$PEPTIDE1,PEPTIDE1,2:R3-7:R3$$$V2.0; SMILES CC(C)C[C@@H]1NC(=O)[C@H](CC(=O)O)NC(=O)CNC(=O)[C@H](CCCNC(=N)N)NC(=O)[C@@H](NC(=O)CCN2/C(=C/C=C/C=C/C=C/C3=[N+](CCC(=O)O)c4ccc5ccccc5c4C3(C)C)C(C)(C)c3c2ccc2ccccc32)CSSC[C@@H](C(N)=O)NC1=O) [Cypate-cyclo(CRGDLC)-NH2] | 
 | 1.89 | CRGDDC (HELM PEPTIDE1{[CC1(C)C(/C=C/C=C/C=C/C=C2/N(CCC(=O)[*:2])c3ccc4ccccc4c3C2(C)C)=[N+](CCC(=O)O)c2ccc3ccccc3c21].C.R.G.D.D.C.[am]}$PEPTIDE1,PEPTIDE1,2:R3-7:R3$$$V2.0; SMILES CC1(C)C(/C=C/C=C/C=C/C=C2/N(CCC(=O)N[C@H]3CSSC[C@@H](C(N)=O)NC(=O)[C@H](CC(=O)O)NC(=O)[C@H](CC(=O)O)NC(=O)CNC(=O)[C@H](CCCNC(=N)N)NC3=O)c3ccc4ccccc4c3C2(C)C)=[N+](CCC(=O)O)c2ccc3ccccc3c21) [Cypate-cyclo(CRGDDC)-NH2] | 
0.000977 |  | {Cypate′}-[βAla]CRGDC[dF]V-NH2 (disulfide 2-6) [Cypate-BAla-Cyclo(Cys-Arg-Gly-Asp-Cys)-DPhe-Val-NH2] | 
2670 |  | {Cypate(3)}-GRDSPK-OH [Cypate(3)-Gly-Arg-Asp-Ser-Pro-Lys-OH] | 
0.275 |  | CRGDSC-NH2 (disulfide 1-6; not fully specified (N-terminus); printed as Cypate-[Cyclo(Cys-Arg-Gly-Asp-Ser-Cys)-NH2]1-(D-Glucosamine); also: D-glucosamine attached to cypate) [Cypate-[Cyclo(Cys-Arg-Gly-Asp-Ser-Cys)-NH2]1-(D-Glucosamine)] | 
350 |  | {DOTA}-GRDSPK-OH (also called DOTA-GRD) [DOTA-Gly-Arg-Asp-Ser-Pro-Lys-OH] | 
 |  | KRGDXDXX (HELM PEPTIDE1{[CC1(C)C(/C=C/C=C/C=C/C=C2/N(CCC(=O)[*:2])c3ccc4ccccc4c3C2(C)C)=[N+](CCC(=O)O)c2ccc3ccccc3c21].K.R.G.D.[dF].D.[dF].[O=C(CCCCCN[*:1])[*:2]].[am]}$$$$V2.0; SMILES CC1(C)C(/C=C/C=C/C=C/C=C2/N(CCC(=O)N[C@@H](CCCCN)C(=O)N[C@@H](CCCNC(=N)N)C(=O)NCC(=O)N[C@@H](CC(=O)O)C(=O)N[C@H](Cc3ccccc3)C(=O)N[C@@H](CC(=O)O)C(=O)N[C@H](Cc3ccccc3)C(=O)NCCCCCC(N)=O)c3ccc4ccccc4c3C2(C)C)=[N+](CCC(=O)O)c2ccc3ccccc3c21) [Cypate-Lys-Arg-Gly-Asp-DPhe-Asp-DPhe-EAhx-NH2] | IC50 [1]: 0.328 µM
